One substance from paper PMC10669680 can be followed below.

The experiment concerns the target HIV-1 reverse transcriptase p51 (isolated polymerase domain) with the C38V/C280S/M357T substitutions, no affinity tag (HIV-1). Nature of the experiment: SEC; Superdex 200 Increase 5/150, SEC buffer 50 mM Bis-Tris, 1 M NaCl, 1 mM CDTA, pH 6.5; samples 80% SEC buffer, 20% glycerol; [NaCl] varied 0.15-1.0 M and [p51] varied 10-80 µM; monomer to dimer.

Usually stoichiometry N stands for the number of molecules, sites or subunits per partner or assembly.

On to “HIV-1 reverse transcriptase p51 (isolated polymerase domain) with the C38V/C280S/M357T substitutions, no affinity tag (domain or fragment)”, for which the stoichiometry N is 2.
